Holding throughout (assay): Crosslinking/co-immunoprecipitation/mass spectrometry (TMT quantitative proteomics) to identify irisin receptors
Common to all, as to assay type: binding

Test [1] deals with T1, MLO-Y4 cell surface proteins (Mus musculus, UniProt C0HKE1).
T1 construct: endogenous in cells; host or cells: MLO-Y4
The settings on record: co-precipitated protein Hist1h2ab (H2A1_MOUSE). In a few lines: (§1)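 Relative protein abundance came from 6-plex TMT MS3 quantitation on an Orbitrap Fusion Lumos, after in-gel trypsin digestion of Coomassie-stained SDS-PAGE lanes. Input was a Ni-NTA pulldown (250 mM imidazole elution) of lysates from murine MLO-Y4 cells. These cells were treated on ice with His-tagged irisin or adipsin (10 nM, 20 min) in serum-free medium, then crosslinked with 1.5 mM DTSSP for 30 min.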

In test [2] the target is T2, MLO-Y4 cell surface proteins (Mus musculus, UniProt E9Q0C6).
T2 construct: endogenous in cells; host or cells: MLO-Y4
T2 sequence (E9Q0C6 whole entry): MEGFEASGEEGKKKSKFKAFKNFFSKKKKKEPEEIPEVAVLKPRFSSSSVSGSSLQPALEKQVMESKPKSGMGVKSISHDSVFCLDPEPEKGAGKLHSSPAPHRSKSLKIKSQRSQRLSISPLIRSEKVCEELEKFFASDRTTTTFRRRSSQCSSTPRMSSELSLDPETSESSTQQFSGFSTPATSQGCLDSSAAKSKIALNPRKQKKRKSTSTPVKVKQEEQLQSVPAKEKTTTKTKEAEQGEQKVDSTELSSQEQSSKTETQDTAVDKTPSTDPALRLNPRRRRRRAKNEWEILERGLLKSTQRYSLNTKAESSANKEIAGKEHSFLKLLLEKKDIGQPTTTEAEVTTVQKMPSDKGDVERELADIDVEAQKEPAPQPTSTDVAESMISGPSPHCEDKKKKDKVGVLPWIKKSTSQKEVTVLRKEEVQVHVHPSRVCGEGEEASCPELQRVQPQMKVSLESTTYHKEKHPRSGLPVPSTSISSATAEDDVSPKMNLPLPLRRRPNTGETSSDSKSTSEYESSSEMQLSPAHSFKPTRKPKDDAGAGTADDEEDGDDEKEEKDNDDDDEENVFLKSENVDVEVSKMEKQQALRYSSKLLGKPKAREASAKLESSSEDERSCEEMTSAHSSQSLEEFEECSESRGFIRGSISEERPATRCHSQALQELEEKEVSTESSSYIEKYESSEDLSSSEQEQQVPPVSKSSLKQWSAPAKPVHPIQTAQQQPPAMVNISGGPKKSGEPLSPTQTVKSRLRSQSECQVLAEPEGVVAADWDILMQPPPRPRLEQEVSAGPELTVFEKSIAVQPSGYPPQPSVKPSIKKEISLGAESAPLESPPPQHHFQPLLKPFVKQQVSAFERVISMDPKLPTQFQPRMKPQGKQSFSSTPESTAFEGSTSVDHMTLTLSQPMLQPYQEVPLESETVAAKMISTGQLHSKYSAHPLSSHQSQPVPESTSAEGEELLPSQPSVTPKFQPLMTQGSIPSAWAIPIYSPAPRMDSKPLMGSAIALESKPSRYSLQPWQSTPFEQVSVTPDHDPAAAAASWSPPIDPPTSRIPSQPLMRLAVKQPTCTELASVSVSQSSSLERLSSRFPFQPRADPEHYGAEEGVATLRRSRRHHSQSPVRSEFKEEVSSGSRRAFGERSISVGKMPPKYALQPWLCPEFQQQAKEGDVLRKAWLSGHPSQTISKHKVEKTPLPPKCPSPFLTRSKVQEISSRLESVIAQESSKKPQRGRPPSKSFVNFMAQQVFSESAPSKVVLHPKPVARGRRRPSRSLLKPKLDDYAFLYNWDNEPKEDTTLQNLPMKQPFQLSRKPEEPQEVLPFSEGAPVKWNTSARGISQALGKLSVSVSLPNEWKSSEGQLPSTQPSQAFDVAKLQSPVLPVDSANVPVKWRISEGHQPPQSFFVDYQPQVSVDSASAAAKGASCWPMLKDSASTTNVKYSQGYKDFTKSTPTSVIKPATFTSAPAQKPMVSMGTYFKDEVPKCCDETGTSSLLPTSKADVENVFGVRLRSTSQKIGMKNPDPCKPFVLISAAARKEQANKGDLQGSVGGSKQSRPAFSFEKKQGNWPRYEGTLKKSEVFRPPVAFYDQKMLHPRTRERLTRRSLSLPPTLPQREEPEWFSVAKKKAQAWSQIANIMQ
The note with it: co-precipitated protein Gm14569 (E9Q0C6_MOUSE). In short, it runs like this:
as §1

For test [3], the target named is T3, MLO-Y4 cell surface proteins (Mus musculus, UniProt Q8JZN5).
T3 construct: endogenous in cells; host or cells: MLO-Y4
T3 sequence (Q8JZN5 42-625): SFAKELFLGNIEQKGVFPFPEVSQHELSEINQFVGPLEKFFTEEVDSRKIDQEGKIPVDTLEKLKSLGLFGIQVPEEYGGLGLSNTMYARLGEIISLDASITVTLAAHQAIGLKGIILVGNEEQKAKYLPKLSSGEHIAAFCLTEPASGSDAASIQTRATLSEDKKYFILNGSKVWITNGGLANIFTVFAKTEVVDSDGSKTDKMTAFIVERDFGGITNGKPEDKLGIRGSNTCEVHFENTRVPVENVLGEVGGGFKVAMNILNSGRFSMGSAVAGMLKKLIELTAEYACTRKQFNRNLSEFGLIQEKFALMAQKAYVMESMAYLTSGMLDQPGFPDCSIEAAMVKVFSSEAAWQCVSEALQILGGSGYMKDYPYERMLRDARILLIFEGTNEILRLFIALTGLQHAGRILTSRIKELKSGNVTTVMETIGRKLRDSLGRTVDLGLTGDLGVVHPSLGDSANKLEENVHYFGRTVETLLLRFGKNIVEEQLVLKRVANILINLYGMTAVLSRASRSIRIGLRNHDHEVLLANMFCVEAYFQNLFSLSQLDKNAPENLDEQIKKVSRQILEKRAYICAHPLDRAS
The settings on record: co-precipitated protein Acad9 (ACAD9_MOUSE). In short, it runs like this: as §1

Test [4] addresses T4, MLO-Y4 cell surface proteins (Mus musculus, UniProt Q9D051).
T4 construct: endogenous in cells; host or cells: MLO-Y4
T4 sequence (Q9D051 31-359): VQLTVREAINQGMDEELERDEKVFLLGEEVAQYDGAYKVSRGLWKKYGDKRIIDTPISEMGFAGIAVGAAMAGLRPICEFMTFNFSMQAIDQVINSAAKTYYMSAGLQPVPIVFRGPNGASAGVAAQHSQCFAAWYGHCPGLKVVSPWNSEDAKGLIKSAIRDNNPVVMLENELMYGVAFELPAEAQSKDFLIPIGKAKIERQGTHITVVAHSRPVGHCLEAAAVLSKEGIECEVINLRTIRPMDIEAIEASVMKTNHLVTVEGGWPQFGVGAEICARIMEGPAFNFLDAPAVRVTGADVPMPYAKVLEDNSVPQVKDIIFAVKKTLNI
The settings on record: co-precipitated protein Pdhb (ODPB_MOUSE). In a few lines:
as §1

B1: irisin: secreted cleaved form of FNDC5; recombinant human/mouse irisin with C-terminal his tag produced in HEK293 cells (protein)
chain: DSPSAPVNVTVRHLKANSAVVSWDVLEDEVVIGFAISQQKKDVRMLRFIQEVNTTTRSCALWDLEEDTEYIVHVQAISIQGQSPASEPVLFKTPREAEKMASKNKDEVTMKE
modifications: left off: small tags and cut ends
notes: secreted cleaved form of FNDC5; recombinant human/mouse irisin with C-terminal his tag produced in HEK293 cells
Consider B1, for which the TMT signal-to-noise ratio in test [1] amounted to 119.978; in test [2], 8.647; in test [3], 61.8219; in test [4], 123.1. Besides, the “irisin/adipsin TMT signal-to-noise ratio” value in test [1] is given as 0.438; in test [2], 0.039; in test [3] it was 0.486; in test [4] it was 0.337.

Source of the values: patent publication US20210063414A1, “METHODS FOR PREVENTING AND/OR TREATING BONE LOSS CONDITIONS BY MODULATING IRISIN” (Dana-Farber Cancer Institute, Inc., priority 2018, published 2021).
